Source: PMC10541312 (The Journal of Experimental Medicine, 2023)
Substitutions are numbered along the chain they refer to. Names and notes keep the numbering of the source.

Legend:
Assay in all cases: BLI; biotinylated CD123 ECD wt and variants captured on streptavidin biosensors; IL-3 as analyte, 500 to 7.8 nM in PBS pH7.4; association 300 s; steady-state analysis
Conditions in all cases: both partners purified
[1] = target: T1, CD123 S59F ECD (amino acids 19–305), soluble protein (human, UniProt P26951 19-305, S59F, biotinylated (Biotinylation kit Type B) in the IL-3 BLI only)
T1 construct: human CD123 extracellular domain (ECD; amino acids 19–305); source: produced and purified by Icosagen
T1 sequence (looked up): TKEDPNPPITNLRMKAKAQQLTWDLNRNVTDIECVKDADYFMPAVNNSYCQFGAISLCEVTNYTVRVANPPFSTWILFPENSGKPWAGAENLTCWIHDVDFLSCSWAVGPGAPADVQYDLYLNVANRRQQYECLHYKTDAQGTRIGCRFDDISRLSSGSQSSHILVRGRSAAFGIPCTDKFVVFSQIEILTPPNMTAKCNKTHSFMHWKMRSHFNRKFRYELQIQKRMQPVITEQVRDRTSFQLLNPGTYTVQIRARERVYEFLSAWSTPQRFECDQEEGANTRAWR

[2] = target: T2, CD123 E51T ECD (amino acids 19–305), soluble protein (human, UniProt P26951 19-305, E51T, biotinylated (Biotinylation kit Type B) in the IL-3 BLI only)
T2 construct: human CD123 extracellular domain (ECD; amino acids 19–305); source: produced and purified by Icosagen
T2 sequence (looked up): T1 sequence (looked up) with E33T, F41S

[3] = target: T3, CD123 E51K ECD (amino acids 19–305), soluble protein (human, UniProt P26951 19-305, E51K, biotinylated (Biotinylation kit Type B) in the IL-3 BLI only)
T3 construct: human CD123 extracellular domain (ECD; amino acids 19–305); source: produced and purified by Icosagen
T3 sequence (looked up): T1 sequence (looked up) with E33K, F41S

[4] = target: T4, CD123 E51Q ECD (amino acids 19–305), soluble protein (human, UniProt P26951 19-305, E51Q, biotinylated (Biotinylation kit Type B) in the IL-3 BLI only)
T4 construct: human CD123 extracellular domain (ECD; amino acids 19–305); source: produced and purified by Icosagen
T4 sequence (looked up): T1 sequence (looked up) with E33Q, F41S

[5] = target: T5, CD123 R84Q ECD (amino acids 19–305), soluble protein (human, UniProt P26951 19-305, R84Q, biotinylated (Biotinylation kit Type B) in the IL-3 BLI only)
T5 construct: human CD123 extracellular domain (ECD; amino acids 19–305); source: produced and purified by Icosagen
T5 sequence (looked up): T1 sequence (looked up) with F41S, R66Q

[6] = target: T6, CD123 R84E ECD (amino acids 19–305), soluble protein (human, UniProt P26951 19-305, R84E, biotinylated (Biotinylation kit Type B) in the IL-3 BLI only)
T6 construct: human CD123 extracellular domain (ECD; amino acids 19–305); source: produced and purified by Icosagen
T6 sequence (looked up): T1 sequence (looked up) with F41S, R66E

Measured: binding result

B1: IL-3 (ligand, human, UniProt P08700 20-152, looked up)
chain: APMTQTTPLKTSWVNCSNMIDEIITHLKQPPLPLLDFNNLNGEDQDILMENNLRRPNLEAFNRAVKSLQNASAIESILKNLLPCLPLATAAPTRHPIHIKDGDWNEFRRKLTFYLKTLENAQAQQTTLSLAIF
notes: human interleukin-3, recombinant, Sino Biological PN 11858-H08H; also called interleukin-3; human IL-3; source: bought: Sino Biological (PN 11858-H08H)
binds: [1] | [2] | [3] | [4] | [5] | [6]
